The source of these data is patent US8647828B2, “Intracellular targeting of molecules via syndecan-4” (Szilak Laboratories Bioinformatics & Molecule-Design Ltd., priority 2007, dated 2014).

In experiment [1] the test system is syndecan-4. In words: FGF2 stimulated syndecan-4 endocytosis, time-lapse confocal microscopy. To be noted: HT1080, 22° C., 0, 10 and 60 minutes. Format: cell-based, human.
For experiment [2], the target named is T1, syndecan-4 (Homo sapiens, UniProt P31431).
T1 construct: comprising the full, human syndecan-4 cDNA driven by cytomegalovirus (CMV) promoter; expressed in transfected cells; host or cells: HT1080 fibrosarcoma, MCF7 adenocarcinoma
T1 sequence (P31431 19-198): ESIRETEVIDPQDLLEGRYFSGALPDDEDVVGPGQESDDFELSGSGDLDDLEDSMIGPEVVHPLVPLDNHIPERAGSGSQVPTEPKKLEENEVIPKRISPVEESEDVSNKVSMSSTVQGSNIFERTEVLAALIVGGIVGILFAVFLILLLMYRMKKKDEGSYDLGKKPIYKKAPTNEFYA
Briefly: Syndecan-4 mediated internalization and nuclear targeting of FITC labeled basic peptides (immunofluorescent microscopy). It counts as cell-based. To be noted: 10 μM FITC labeled peptide. An excerpt: Green fluorescent protein (GFP, Clontech; Palo Alto, Calif., USA) labeled fusion proteins were used to follow the process of the endocytosis of syndecan-4 in vivo. GFP was inserted into the syndecan-4 extracellular region in the HuSynd4 pCMV construct, comprising the full, human syndecan-4 cDNA driven by cytomegalovirus (CMV) promoter by using techniques well-known by the person skilled in the art. To avoid possible artifacts, every experiment was repeated with all of the constructs; HuSynd4 pCMV and the GFP chimeras. To reveal the role and the importance of phosphorylation stage of Ser179, mutations were introduced into the cytoplasmic tail region of syndecan-4-GFP chimeras. […]
Syndecan-4 is able to carry the agents bound on the cell surface into the cell. […] The cells were permeabilized with 0.1% triton X-100 (Sigma, St. Louis, Mo., USA) in PBS, and syndecan-4 was visualized with anti-syndecan-4 ectodomain serum (Zymed, San Francisco, Calif., USA), monitored by immunofluorescent microscopy. […] The labeled molecules were detected in distinct compartments of cytoplasm, which indicate that the syndecan-4 was able to internalize and traffic the attached agents, like antibodies, and basic peptides along, holding the specifically bound agents intact throughout the whole process. […]

Ends that are not written are not given here.

For the substance “FGF2: basic fibroblast growth factor, stimulator of syndecan-4 endocytosis”, the syndecan-4 endocytosis entry in the experiment with syndecan-4 [1] is recorded as “stimulated”. As for “KRKRKR (also: FITC label) [6 amino acid basic oligopeptide, fluorescently (FITC) labeled]”, the “nuclear accumulation of labeled oligopeptide, colocalized with syndecan-4” value with syndecan-4 [2] is recorded as “accumulated in the nucleus”. The “triggering of syndecan-4 endocytosis and penetration into the cell” value with syndecan-4 [2] (incubated for an hour) was “able to trigger the endocytosis, and penetrate”.
